B1: BW9 (ssDNA)
DNA: TCACCTGAGACTTGACGATGGGAACAAACACCGCGACCACCCCCCCACTTAACTCCTGAGTGCTATCGTCTGTCCA
B2: BW10 (ssDNA)
DNA: TCACCTGAGACTTGACGATGGCAATCCCCCCGACACCGAATCCTAAGCGAACAACGCGAGTGCTATCGTCTGTCCA
B3: BW4 (ssDNA)
DNA: TCACCTGAGACTTGACGATGGTTTAACTCCCCCACGCCCCCCGCCAACCCATCTCCAGAGTGCTATCGTCTGTCCA
B4: BW7 (ssDNA)
DNA: TCACCTGAGACTTGACGATGGTGACCACCCCCCACGCACACACACCTCTTCCATCCTGAGTGCTATCGTCTGTCCA
B5: BW6 (ssDNA)
DNA: TCACCTGAGACTTGACGATGGTCAGAACGACGCGCCCCCCACCTCATTCATTATTTTGAGTGCTATCGTCTGTCCA
B6: BW5 (ssDNA)
DNA: TCACCTGAGACTTGACGATGGTACGACGGCCCCCCGATTATGCGACTACTTGATTTGAGTGCTATCGTCTGTCCA
B7: IT2a Tau aptamer (13-base extended) (ssDNA)
DNA: TGACTGATTTACGGAAGCTGAATAAGGACTGCTTAGGATTGCGATGATTCAGCTTC
B8: BW1c (ssDNA)
DNA: GACGATAGCATCACTCCCCCCCACCTATTACATCATCATAAATTGAGTGCTATCGTC
B9: BW1 (ssDNA)
DNA: TCACCTGAGACTTGACGATGGCATCACTCCCCCCCACCTATTACATCATCATAAATTGAGTGCTATCGTCTGTCCA
B10: BW3 (ssDNA)
DNA: TCACCTGAGACTTGACGATGGAACTCCCCCCACCATTATCAGCGCACCACCATTGTAGAGTGCTATCGTCTGTCCA
B11: Circular Tau-TfR bispecific aptamer (structured_DNA)
DNA: TGACTGATTTACGGAAGCTGAATAAGGACTGCTTAGGATTGCGATGATTCAGCTTCCGTAAATCAGTCAGAAGGCGTGGTACCACGCTTTC
B12: BW2 (ssDNA)
DNA: TCACCTGAGACTTGACGATGGCCTCCCCCTCACGCACTCTTCCGTTTCTTCTTATCTGAGTGCTATCGTCTGTCCA
B13: BW8 (ssDNA)
DNA: TCACCTGAGACTTGACGATGGCACTACCCCTCCCTACTAAGCACGGTATCTTGTACTGAGTGCTATCGTCTGTCCA

What was measured:
[1] = target: T1, Tau441 (2N4R tau) (Homo sapiens, UniProt P10636-8 P10636-8:1-441); assay: dot blot, 250 nM; conditions: tags: N-terminal His-tag, SignalChem (biotin-labelled for functional SELEX and BLI); label: FAM
T1 sequence (P10636 other isoform, or with tags, fused parts or gaps): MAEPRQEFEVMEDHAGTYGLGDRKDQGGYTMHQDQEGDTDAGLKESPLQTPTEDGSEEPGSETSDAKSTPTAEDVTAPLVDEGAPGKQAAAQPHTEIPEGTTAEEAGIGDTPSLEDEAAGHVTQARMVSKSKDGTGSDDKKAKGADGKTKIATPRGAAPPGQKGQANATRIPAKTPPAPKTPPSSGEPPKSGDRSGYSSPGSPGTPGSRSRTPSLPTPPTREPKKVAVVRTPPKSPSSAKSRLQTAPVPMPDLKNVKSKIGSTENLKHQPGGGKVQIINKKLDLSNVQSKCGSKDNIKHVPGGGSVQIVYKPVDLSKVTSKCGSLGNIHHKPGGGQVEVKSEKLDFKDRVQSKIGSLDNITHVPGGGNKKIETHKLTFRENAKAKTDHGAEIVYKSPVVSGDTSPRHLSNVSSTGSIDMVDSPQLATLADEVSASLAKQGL
Protocol: (§1) FIG. 38A is the flow cytometry results analyzing primary binding between aptamer candidates and Tau 441. FIG. 38B is a dot blot assay showing aptamer binding specificity. FIG. 38A Primary binding analysis between aptamer candidates and Tau 441. FIG. 38B Aptamers binding specificity by dot blot assay. The nitrocellulose membranes were socked in methanol until becoming wet (1 min) then the membranes were washed with PBST solution for 5 mins. BSA, Casein, IgG, Tau and P-Tau (1 μg per protein) were respectively immobilized as striped dots on the NC membranes by air-drying. The membranes were blocked with 1% fat-free milk in PBST for 1 hour and incubated with heat-denatured aptamers (250 nM) labeled with FAM for 1 hour at room temperature. Control DNA were random sequence DNA with FAM label. The membranes were washed three times with TBST. Dots were scanned by Typhoon Imaging System (Amersham Biosciences).
(§2) The preliminary investigation of binding ability between aptamers and Tau441 was validated by flow cytometry. […] Furthermore, the binding specificity of the selected tau aptamers to full-length Tau441 protein was confirmed by dot blotting by incubating each of the FAM-labeled aptamers with nitrocellulose membranes which have already been immobilized with either target Tau441 protein or nontarget proteins (FIG. 38B). […] No cross-reactivity was observed between the aptamers and the nontarget proteins, including: α casein, β casein, BSA (bovine serum albumin), and IgG (immunoglobin G). Particularly, the membranes were blocked by milk after immobilizing with each protein which further illustrated the strong specificity of the obtained aptamers.

[2] = target: T2, Bovine serum albumin (BSA) (Bos taurus, UniProt P02769 P02769:25-607); assay: dot blot
T2 sequence (P02769 25-607, one chain of several): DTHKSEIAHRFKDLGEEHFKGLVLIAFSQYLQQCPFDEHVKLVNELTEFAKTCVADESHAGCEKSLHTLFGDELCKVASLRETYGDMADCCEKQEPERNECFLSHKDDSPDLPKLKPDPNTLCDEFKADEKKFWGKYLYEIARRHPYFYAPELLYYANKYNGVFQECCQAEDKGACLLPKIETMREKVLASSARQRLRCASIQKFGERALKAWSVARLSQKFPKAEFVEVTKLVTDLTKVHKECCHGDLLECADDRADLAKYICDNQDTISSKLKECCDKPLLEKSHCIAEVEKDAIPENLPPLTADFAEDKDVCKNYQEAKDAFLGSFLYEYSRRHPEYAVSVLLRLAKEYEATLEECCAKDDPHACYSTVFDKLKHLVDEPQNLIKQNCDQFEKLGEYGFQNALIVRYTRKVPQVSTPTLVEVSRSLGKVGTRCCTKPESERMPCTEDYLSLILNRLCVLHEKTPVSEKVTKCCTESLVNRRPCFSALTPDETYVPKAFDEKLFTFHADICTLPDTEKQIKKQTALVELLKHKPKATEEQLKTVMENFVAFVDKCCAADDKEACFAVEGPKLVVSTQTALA
Protocol: as §1, §2

[3] = target: T2, Bovine serum albumin (BSA); assay: EMSA; profile stated same as circular aptamer; conditions: label: FITC-dT near 3' end; hairpin
Protocol: (§3) To determine the specificity of the circular aptamer against Tau441 protein, 5 μL of 400 nM Tau (IT2a) aptamer or circular aptamer were first incubated with 0.2 mg/mL target Tau441 protein or control proteins (S100B, BSA) at 4° C. for 30 minutes. Then, each sample was loaded onto an 8% native PAGE gel. The gel was run in 1×TBE at 70 V for 10 minutes and 150 V for 40 minutes. Finally, the gel was stained with Coomassie blue for protein detection and scanned in the fluorescein channel using Typhoon for aptamer detection.
(§4) After interaction, each sample was loaded onto the nondenaturing gel for protein detection with Coomassie Brilliant Blue staining (FIG. 13A) and aptamer fluorescence (FIG. 13B) detection. […] Five microliters of 400 nM Tau (IT2a) aptamer or circular aptamer was first incubated with 0.2 mg/mL target Tau441 protein or control proteins at 4° C. for 30 minutes. […] For FIG. 13A and FIG. 13 B, Lanes 1 and 6: Ladder; Lane 2: IT2a aptamer; Lane 3: IT2a aptamer+Tau441 (67 kDa); Lane 4: IT2a aptamer+S100B (9 kDa); Lane 5: IT2a aptamer+BSA (66 kDa); Lane 7: Circular aptamer; Lane 8: Circular aptamer+Tau411 (67 kDa); Lane 9: Circular aptamer+S100B (9 kDa); Lane 10: Circular aptamer+BSA (66 kDa).

[4] = target: T1, Tau441 (2N4R tau); assay: EMSA; 400 nM aptamer, 0.2 mg/mL protein, 4 C; conditions: tags: N-terminal His-tag, SignalChem (biotin-labelled for functional SELEX and BLI)
Protocol: as §3, §4

[5] = target: T1, Tau441 (2N4R tau); assay: dot blot, 100 nM; stronger than BW1, BW1a, BW1b; conditions: tags: N-terminal His-tag, SignalChem (biotin-labelled for functional SELEX and BLI); label: 5' Cy5
Protocol: The nitrocellulose membranes were socked in methanol till it becomes wet (1 min) then the membranes were washed with TBST solution for 5 mins. Tau protein (stripped band 0.5 μg) were dripped on the NC membranes in every dot and then waited to dry (2 mins). The membranes were blocked with 1% fat-free milk in TBST for 1 hour and were respectively incubated with series of heat denatured aptamers (250 nM) for 1 hour in blocking buffer (contain 0.5 mM Mg²⁺) at room temperature. Next the membrane was washed for three times by TBST, 5 min for each time. Dots were scanned simultaneously by a Typhoon Imaging System (Amersham Biosciences).

[6] = target: T1, Tau441 (2N4R tau); assay: dot blot, 250 nM; best flow cytometry shift; Kd only in figure; conditions: tags: N-terminal His-tag, SignalChem (biotin-labelled for functional SELEX and BLI); label: FAM or 5' Cy5
Protocol: as §1
The preliminary investigation of binding ability between aptamers and Tau441 was validated by flow cytometry. […] Furthermore, the binding specificity of the selected tau aptamers to full-length Tau441 protein was confirmed by dot blotting by incubating each of the FAM-labeled aptamers with nitrocellulose membranes which have already been immobilized with either target Tau441 protein or nontarget proteins (FIG. 38B). […]

[7] = target: T2, Bovine serum albumin (BSA); assay: EMSA; specificity control; conditions: label: one or two FITC-dT
Protocol: as §3, §4

Binder | binding result [1] | binding result ([2]; label: FAM) | further results
B1 | binds | no binding | 
B2 | binds | no binding | 
B3 | binds | no binding | 
B4 | binds | no binding | 
B5 | binds | no binding | 
B6 | binds | no binding | 
B7 |  |  | binding result [3]: no binding; binding result ([4]; label: FITC-dT near 3' end, hairpin): binds
B8 |  |  | binding result [5]: binds
B9 |  |  | binding result [6]: binds; binding result ([2]; label: FAM or 5' Cy5): no binding
B10 | binds | no binding | 
B11 |  |  | binding result [7]: no binding; binding result ([4]; label: one or two FITC-dT): binds
B12 | binds | no binding | 
B13 | binds | no binding | 

From patent US20230159935, “[…] BIFUNCTIONAL […] AND TRIFUNCTIONAL […] TARGETING Tau” (UNIVERSITY OF FLORIDA RESEARCH FOUNDATION, INCORPORATED, published 2023)
